Sequences and labels used below:
B1: EC hydrolase (ethyl carbamate hydrolase) (Lysinibacillus fusiformis; H68A/K70R/S325N) (protein)
chain: MTTDLHLKSVEELAPLLASKSLSPVELTKAILDFAEESQPKINSYMAFYREEALARAKEVEQEILQGAYRGMYHGIPMALKDNLYFKDKITTMSSKIHKDFVSDYDATVVEKLRDAGVIFTGKLSMHEYAWGITNNNPHYGPVRNPWDLDKIPGGSSGGSGAAVAAGASVASLGTDTAGSIRIPSSACGIVGLKPTHGRVSKYGCYPLAWSLDHIGPMTKTVKDAAGLLEVIAGFDHQDPTCVNVPVDNYEKQLTGNIKDLVIGINEEYFFNNVDADVEKAVRASIQSLVDSGAKVEVVRIPSLQYAEWAELVTSLSEAAAIHHNDLQKRPQDFGDDIRLLFELGELPSAVDYLQAQQVRRQIKQEFTEIFNKVDVLISPTLPIVASTIGDDFAELNGQKVDLIDNIIRFTGPSNLTGLPALSVPCGFKGNLPIGLQIIGPAFKEGRILNVGYAVEQANPQRNRKPNIFANI
B2: EC hydrolase (ethyl carbamate hydrolase) (Lysinibacillus fusiformis; A178L) (protein)
chain: MTTDLHLKSVEELAPLLASKSLSPVELTKAILDFAEESQPKINSYMAFYREEALARAKEVEQEILQGHYKGMYHGIPMALKDNLYFKDKITTMSSKIHKDFVSDYDATVVEKLRDAGVIFTGKLSMHEYAWGITNNNPHYGPVRNPWDLDKIPGGSSGGSGAAVAAGASVASLGTDTLGSIRIPSSACGIVGLKPTHGRVSKYGCYPLAWSLDHIGPMTKTVKDAAGLLEVIAGFDHQDPTCVNVPVDNYEKQLTGNIKDLVIGINEEYFFNNVDADVEKAVRASIQSLVDSGAKVEVVRIPSLQYAEWAELVTSLSEAAAIHHSDLQKRPQDFGDDIRLLFELGELPSAVDYLQAQQVRRQIKQEFTEIFNKVDVLISPTLPIVASTIGDDFAELNGQKVDLIDNIIRFTGPSNLTGLPALSVPCGFKGNLPIGLQIIGPAFKEGRILNVGYAVEQANPQRNRKPNIFANI
B3: EC hydrolase (ethyl carbamate hydrolase) (Lysinibacillus fusiformis; H68A/S325N) (protein)
chain: MTTDLHLKSVEELAPLLASKSLSPVELTKAILDFAEESQPKINSYMAFYREEALARAKEVEQEILQGAYKGMYHGIPMALKDNLYFKDKITTMSSKIHKDFVSDYDATVVEKLRDAGVIFTGKLSMHEYAWGITNNNPHYGPVRNPWDLDKIPGGSSGGSGAAVAAGASVASLGTDTAGSIRIPSSACGIVGLKPTHGRVSKYGCYPLAWSLDHIGPMTKTVKDAAGLLEVIAGFDHQDPTCVNVPVDNYEKQLTGNIKDLVIGINEEYFFNNVDADVEKAVRASIQSLVDSGAKVEVVRIPSLQYAEWAELVTSLSEAAAIHHNDLQKRPQDFGDDIRLLFELGELPSAVDYLQAQQVRRQIKQEFTEIFNKVDVLISPTLPIVASTIGDDFAELNGQKVDLIDNIIRFTGPSNLTGLPALSVPCGFKGNLPIGLQIIGPAFKEGRILNVGYAVEQANPQRNRKPNIFANI
B4: EC hydrolase (ethyl carbamate hydrolase) (Lysinibacillus fusiformis) (protein)
chain: MTTDLHLKSVEELAPLLASKSLSPVELTKAILDFAEESQPKINSYMAFYREEALARAKEVEQEILQGHYKGMYHGIPMALKDNLYFKDKITTMSSKIHKDFVSDYDATVVEKLRDAGVIFTGKLSMHEYAWGITNNNPHYGPVRNPWDLDKIPGGSSGGSGAAVAAGASVASLGTDTAGSIRIPSSACGIVGLKPTHGRVSKYGCYPLAWSLDHIGPMTKTVKDAAGLLEVIAGFDHQDPTCVNVPVDNYEKQLTGNIKDLVIGINEEYFFNNVDADVEKAVRASIQSLVDSGAKVEVVRIPSLQYAEWAELVTSLSEAAAIHHSDLQKRPQDFGDDIRLLFELGELPSAVDYLQAQQVRRQIKQEFTEIFNKVDVLISPTLPIVASTIGDDFAELNGQKVDLIDNIIRFTGPSNLTGLPALSVPCGFKGNLPIGLQIIGPAFKEGRILNVGYAVEQANPQRNRKPNIFANI
B5: EC hydrolase (ethyl carbamate hydrolase) (Lysinibacillus fusiformis; H68A) (protein)
chain: MTTDLHLKSVEELAPLLASKSLSPVELTKAILDFAEESQPKINSYMAFYREEALARAKEVEQEILQGAYKGMYHGIPMALKDNLYFKDKITTMSSKIHKDFVSDYDATVVEKLRDAGVIFTGKLSMHEYAWGITNNNPHYGPVRNPWDLDKIPGGSSGGSGAAVAAGASVASLGTDTAGSIRIPSSACGIVGLKPTHGRVSKYGCYPLAWSLDHIGPMTKTVKDAAGLLEVIAGFDHQDPTCVNVPVDNYEKQLTGNIKDLVIGINEEYFFNNVDADVEKAVRASIQSLVDSGAKVEVVRIPSLQYAEWAELVTSLSEAAAIHHSDLQKRPQDFGDDIRLLFELGELPSAVDYLQAQQVRRQIKQEFTEIFNKVDVLISPTLPIVASTIGDDFAELNGQKVDLIDNIIRFTGPSNLTGLPALSVPCGFKGNLPIGLQIIGPAFKEGRILNVGYAVEQANPQRNRKPNIFANI
B6: EC hydrolase (ethyl carbamate hydrolase) (Lysinibacillus fusiformis; K70R) (protein)
chain: MTTDLHLKSVEELAPLLASKSLSPVELTKAILDFAEESQPKINSYMAFYREEALARAKEVEQEILQGHYRGMYHGIPMALKDNLYFKDKITTMSSKIHKDFVSDYDATVVEKLRDAGVIFTGKLSMHEYAWGITNNNPHYGPVRNPWDLDKIPGGSSGGSGAAVAAGASVASLGTDTAGSIRIPSSACGIVGLKPTHGRVSKYGCYPLAWSLDHIGPMTKTVKDAAGLLEVIAGFDHQDPTCVNVPVDNYEKQLTGNIKDLVIGINEEYFFNNVDADVEKAVRASIQSLVDSGAKVEVVRIPSLQYAEWAELVTSLSEAAAIHHSDLQKRPQDFGDDIRLLFELGELPSAVDYLQAQQVRRQIKQEFTEIFNKVDVLISPTLPIVASTIGDDFAELNGQKVDLIDNIIRFTGPSNLTGLPALSVPCGFKGNLPIGLQIIGPAFKEGRILNVGYAVEQANPQRNRKPNIFANI
B7: EC hydrolase (ethyl carbamate hydrolase) (Lysinibacillus fusiformis; S325N) (protein)
chain: MTTDLHLKSVEELAPLLASKSLSPVELTKAILDFAEESQPKINSYMAFYREEALARAKEVEQEILQGHYKGMYHGIPMALKDNLYFKDKITTMSSKIHKDFVSDYDATVVEKLRDAGVIFTGKLSMHEYAWGITNNNPHYGPVRNPWDLDKIPGGSSGGSGAAVAAGASVASLGTDTAGSIRIPSSACGIVGLKPTHGRVSKYGCYPLAWSLDHIGPMTKTVKDAAGLLEVIAGFDHQDPTCVNVPVDNYEKQLTGNIKDLVIGINEEYFFNNVDADVEKAVRASIQSLVDSGAKVEVVRIPSLQYAEWAELVTSLSEAAAIHHNDLQKRPQDFGDDIRLLFELGELPSAVDYLQAQQVRRQIKQEFTEIFNKVDVLISPTLPIVASTIGDDFAELNGQKVDLIDNIIRFTGPSNLTGLPALSVPCGFKGNLPIGLQIIGPAFKEGRILNVGYAVEQANPQRNRKPNIFANI
B8: EC hydrolase (ethyl carbamate hydrolase) (Lysinibacillus fusiformis; K70R/S325N) (protein)
chain: MTTDLHLKSVEELAPLLASKSLSPVELTKAILDFAEESQPKINSYMAFYREEALARAKEVEQEILQGHYRGMYHGIPMALKDNLYFKDKITTMSSKIHKDFVSDYDATVVEKLRDAGVIFTGKLSMHEYAWGITNNNPHYGPVRNPWDLDKIPGGSSGGSGAAVAAGASVASLGTDTAGSIRIPSSACGIVGLKPTHGRVSKYGCYPLAWSLDHIGPMTKTVKDAAGLLEVIAGFDHQDPTCVNVPVDNYEKQLTGNIKDLVIGINEEYFFNNVDADVEKAVRASIQSLVDSGAKVEVVRIPSLQYAEWAELVTSLSEAAAIHHNDLQKRPQDFGDDIRLLFELGELPSAVDYLQAQQVRRQIKQEFTEIFNKVDVLISPTLPIVASTIGDDFAELNGQKVDLIDNIIRFTGPSNLTGLPALSVPCGFKGNLPIGLQIIGPAFKEGRILNVGYAVEQANPQRNRKPNIFANI

Substrate in this data set: CCOC(N)=O
The data set is described as follows: purified protein. It counts as biochemical, Lysinibacillus fusiformis. Particulars: free enzyme, EC 0-300 mM, activity assay at 37 °C, pH not stated.
One may read the Km as the concentration of substrate that gives half-maximal velocity. In the case of B1, the Km stood at 28.2 ± 4.41 mM.

With B2, the Km stood at 96.78 ± 6.09 mM.

Consider B3, for which the Km is on record as 33.27 ± 2.31 mM.

Consider B4, for which the Km stood at 37.67 ± 3.55 mM.

B5: the Km was 31.38 ± 5.61 mM.

Consider B6, for which the Km is on record as 33.38 ± 5.67 mM.

In the case of B7, the Km is on record as 45.52 ± 9.41 mM.

For the protein B8, the Km is reported as 40.82 ± 3.56 mM.

(Values after PMC10017909, “Improving ethanol tolerance of ethyl carbamate hydrolase by diphasic high pressure molecular dynamic simulations” (AMB Express, 2023).)
